Experimental data from patent US10502741B2, “Means and methods for detecting activated MALT1” (Helmholtz Zentrum München Deutsches Forschungszentrum für …, priority 2014, dated 2019).

Experiments:
active MALT1 = target: T1, active MALT1 (Homo sapiens, UniProt Q9UDY8); test: Labeling with diagnostic inhibitor in cell extracts (gel-based, fluorescence scan): active MALT1 band
T1 construct: endogenous in cells; host or cells: Jurkat T cells, primary human PBMCs and T cells, DLBCL cell lines (HBL1, TMD8, OCI-Ly3, OCI-Ly10, U2932, RIVA, BJAB, Su-DHL-4, Su-DHL-6)
T1 sequence (Q9UDY8 1-824): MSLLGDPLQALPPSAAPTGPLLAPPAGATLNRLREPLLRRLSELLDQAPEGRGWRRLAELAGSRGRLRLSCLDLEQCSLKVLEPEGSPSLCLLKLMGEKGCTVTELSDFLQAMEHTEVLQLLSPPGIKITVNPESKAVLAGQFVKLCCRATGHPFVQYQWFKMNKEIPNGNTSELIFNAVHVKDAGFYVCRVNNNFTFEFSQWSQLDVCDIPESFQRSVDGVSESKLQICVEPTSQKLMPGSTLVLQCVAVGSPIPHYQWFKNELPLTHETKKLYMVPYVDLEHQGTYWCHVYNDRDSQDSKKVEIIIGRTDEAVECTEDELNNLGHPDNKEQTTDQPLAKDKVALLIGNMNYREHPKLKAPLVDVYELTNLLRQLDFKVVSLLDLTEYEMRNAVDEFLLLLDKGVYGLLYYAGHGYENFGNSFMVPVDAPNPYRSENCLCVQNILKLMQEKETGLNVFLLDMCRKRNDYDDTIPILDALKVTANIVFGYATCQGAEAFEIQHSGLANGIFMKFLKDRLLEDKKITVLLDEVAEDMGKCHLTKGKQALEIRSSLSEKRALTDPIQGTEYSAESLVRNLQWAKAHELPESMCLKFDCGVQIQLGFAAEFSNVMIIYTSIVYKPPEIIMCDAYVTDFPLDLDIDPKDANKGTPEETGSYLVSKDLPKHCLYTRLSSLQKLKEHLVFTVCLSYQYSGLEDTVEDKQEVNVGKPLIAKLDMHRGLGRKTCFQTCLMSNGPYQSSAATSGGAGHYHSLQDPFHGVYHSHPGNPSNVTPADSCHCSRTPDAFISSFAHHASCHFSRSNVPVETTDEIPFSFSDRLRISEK
Protocol: (§1) Jurkat T cells were cultured in standard RPMI medium containing 10% FCS, 100 U/ml Penicillin/Streptomycin and 2 mM Glutamin. DNA transfection of 6 μg DNA in 8×10^6 Jurkat T cells was performed by electroporation in a GenePulser Xcell (BioRad) with a 220 Volt pulse. For siRNA experiments, Jurkat T cells were transfected with 100 nM siRNA and Atufect transfection reagent (Silence Therapeutics, Berlin). Jurkat T cells were stimulated either with 200 ng/ml PMA (phorbol 12-myristate 13-acetate) and 300 ng/ml Ionomycin (both Calbiochem) or CD3/CD28 antibody co-ligation (human CD3: 1 μg/ml; human CD28: 4 μg/ml; mouse IgG1: 2 μg/ml; mouse IgG2a: 2 μg/ml; BD Biosciences). DLBCL cell lines (HBL1, TMD8, OCI-Ly3, U2932, RIVA, BJAB, Su-DHL-4 and Su-DHL-6) were cultured in standard RPMI medium containing 20% FCS, 100 U/ml Penicillin/Streptomycin and 2 mM Glutamin. OCI-Ly10 cell line was cultured in IMDM containing 20% human serum, 100 U/ml Penicillin/Streptomycin, 2 U/ml heparine, 50 μM β-mercaptoethanol. Inhibitors 10 μM (z-VRPR-FMK, Mepazine, Thioridazine, CA-074Me) were added to the cells in media for 1 h, prior to stimulation and labeling with diagnostic MALT1 inhibitor.
(§2) Jurkat T cells (1-2×10^7), primary human PBMCs or primary human T cells (0.25 or 1×10^7) were lysed in 150 μl co-IP buffer without protease inhibitors. DLBCL (3×10^7) were lysed in 250 μl buffer. After centrifugation (14000 rpm, 10 min, 4° C.), 100 μl extract (DLBCL: 200 μl) was stained with probe 5 or probe 6 (3 μM end) for 50 min at 29° C., mixed with 4× loading dye and boiled.

cathepsin B = cathepsin B (Homo sapiens, UniProt P07858); test: Labeling with diagnostic inhibitor in cell extracts (gel-based, fluorescence scan): about 30 kDa cathepsin B band; parameters: endogenous in cells; host or cells: Jurkat T cells; HBL1 and other DLBCL cell lines
Protocol: as §1, §2

[1] = HBL1 cells, inhibitors 10 μM each

Substance: z-VRPR-FMK (Z N-terminal cap, FMK warhead)
- effect of inhibitor on probe 6 labeling of active MALT1 (active MALT1; [1]): sensitivity
- effect of inhibitor pretreatment on probe 5 labeling of active MALT1 (active MALT1; Jurkat T cells, 10 μM inhibitor before stimulation, probe 5): prevents binding of diagnostic MALT1-inhibitor
- effect of inhibitor on the about 30 kDa cathepsin B signal labeled by probe 6 (cathepsin B; [1]): sensitive
- effect of inhibitor pretreatment on the band below 34 kDa (cathepsin B) labeled by probe 5 (cathepsin B; Jurkat T cells, 10 μM inhibitor, probe 5): reduced
